Source: patent publication US20220380442A1 (published 2022)

T1: Puumala virus (PUUV) glycoproteins Gn and Gc displayed on Expi293F cells (full-length M segment, plasmid … (Puumala virus))
T1 chain 1: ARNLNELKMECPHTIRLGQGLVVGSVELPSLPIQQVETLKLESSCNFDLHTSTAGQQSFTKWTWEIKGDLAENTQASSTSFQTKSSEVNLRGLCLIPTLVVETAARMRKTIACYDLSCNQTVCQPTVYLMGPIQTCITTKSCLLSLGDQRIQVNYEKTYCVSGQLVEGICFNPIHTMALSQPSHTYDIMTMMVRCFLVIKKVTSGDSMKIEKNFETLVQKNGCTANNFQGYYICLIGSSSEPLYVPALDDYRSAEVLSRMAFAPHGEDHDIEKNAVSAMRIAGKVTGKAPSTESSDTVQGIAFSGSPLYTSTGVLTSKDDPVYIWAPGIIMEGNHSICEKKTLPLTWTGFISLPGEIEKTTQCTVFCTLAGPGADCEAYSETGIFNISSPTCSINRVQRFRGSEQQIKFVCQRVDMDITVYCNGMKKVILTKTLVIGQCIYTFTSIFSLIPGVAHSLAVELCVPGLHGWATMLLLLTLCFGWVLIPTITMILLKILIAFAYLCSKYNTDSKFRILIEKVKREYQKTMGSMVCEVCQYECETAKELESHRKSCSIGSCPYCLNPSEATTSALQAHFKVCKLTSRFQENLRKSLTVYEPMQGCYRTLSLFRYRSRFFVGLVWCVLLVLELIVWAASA
T1 chain 2: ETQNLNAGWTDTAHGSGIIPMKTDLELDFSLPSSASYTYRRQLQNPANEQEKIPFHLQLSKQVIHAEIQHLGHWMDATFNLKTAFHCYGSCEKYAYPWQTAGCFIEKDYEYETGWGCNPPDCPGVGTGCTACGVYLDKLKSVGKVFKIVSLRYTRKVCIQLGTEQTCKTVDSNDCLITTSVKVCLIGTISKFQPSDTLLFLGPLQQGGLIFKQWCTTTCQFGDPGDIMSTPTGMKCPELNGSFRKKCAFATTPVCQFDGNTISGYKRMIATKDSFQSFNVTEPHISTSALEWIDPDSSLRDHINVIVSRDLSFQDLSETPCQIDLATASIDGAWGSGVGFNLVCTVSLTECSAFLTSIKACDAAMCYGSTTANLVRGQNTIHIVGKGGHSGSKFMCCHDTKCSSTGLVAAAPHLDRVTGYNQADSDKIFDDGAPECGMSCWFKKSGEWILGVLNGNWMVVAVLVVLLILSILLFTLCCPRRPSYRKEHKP

B1: ANDV-59 (antibody, V domains shown)
VH: QVVLQESGPGLVKPSETLSLTCTVSGGSINNYYWSWIRQPPGKGLEWIGWLYYSGITTFNPSLKSRVTISIDTSKNQVSLNLRSVTAADTAVYYCARVQGSDSSGYYHLKSDWFDPWGQGIPVTVSS
VL: QSVLTQPPSVSAAPGQTVTISCSGSSSNIRHNFVSWYQQLPGTAPKLVIYENNKRPSGIPDRFSGSKSGTSATLGITGLQTGDEADYYCGTWDSSLSAPHWVFGGGTRLTVL
B2: ANDV-5 (antibody, V domains shown)
VH: QVQLLQSGAEVKKPGSSVRVSCQSSGDIYNYYGISWVRQAPGQGLEWMGGIIPVYGRPNYVQKFRGRVTFTVDKSTSTAYMELSTLRADDTAVYYCARDTARSHYFGSGNDYGMDVWGQGTTVIVSS
VL: DIVMTQSPLSLPVTPGEPASISCRSSQSLLHSNGFNFVDWYLQKPGQSPQLLIYLGSTRASGVPDRFSGSGSGTDFTLEISRVEAEDVGVYYCMQALQFPRTFGQGTKLDIK
B3: ANDV-69 (antibody, V domains shown)
VH: QVHLQESGPGLVKPSETLSLTCAVSGYSISSGYCWGWIRQTPGKGLEWIGSIWHTGTTYYNPSLKSRVTISLDTSKNQFSLKLSSLTAADTAVYYCARAIYDSSGYSPFSGLDIWGQGTTVTISS
VL: QSVLTQPPSVSAAPGQKVTISCSGSSSNIGNNYVSWYQQVPGTAPKLLFYDNNKRPSGIPYRFSGSKSGTSATLAITGLQTGDEADYYCGTWDSSLNLWVFGGGTKLTVL
B4: ANDV-2 (antibody, V domains shown)
VH: QVTLKESGPALVKPTQTLTLTCTFSGFSLSTSGMRVSWIRQPPGKALEWLARIDWDDDKFYSTSLKTRLTISKDTSKNQVVLIMTNMDPVDTATYYCARMMVGEGTFDYWGQGTLVTVSS
VL: DIQMTQFPSTLSASVGDRVTITCRASQDISSLLAWYQQKPGKAPKLLIYTASNLEGGVPSRFSGSGSGTEFTLTISSLQPDDFATYYCQQYIRYWTFGQGTKVEIK

Experiments:
[1] = biological target: Sin Nombre virus (SNV) glycoproteins Gn and Gc displayed on the surface of Expi293F cells transfected with … (Sin Nombre virus); assay: flow
[2] = biological target: T1, Puumala virus (PUUV) glycoproteins Gn …; assay: flow

Binder | EC50 [1] [µg/mL] | EC50 [2] [µg/mL]
B1 | 0.0093 | 0.123
B2 |  | 0.148
B3 |  | 0.541
B4 | 0.011 | 
